Data on 2 molecules can be found in patent US20240400652A1 (VIR BIOTECHNOLOGY, published 2024).

In this experiment the target is SARS-CoV-2 Spike protein on pseudotyped virus (SARS-CoV-2, UniProt P0DTC2 14-1273). In words: cell-based or functional assay.

B1: SARS-CoV-2 S304 (antibody, V domains shown)
VH: EVQLVESGGGLVQPGGSLRLSCAASGFTFSSYDMHWVRQTTGKGLEWVSTIGTAGDTYYPDSVKGRFTISREDAKNSLYLQMNSLRAGDTAVYYCARGDSSGYYYYFDYWGQGTLLTVSS
VL: DIQMTQSPSSLSAAVGDRVTITCRASQSIGSYLNWYQQKPGKAPKLLIYAASSLQSGVPSRFSGSGSGTDFTLTISSLQPEDFAIYYCQQSYVSPTYTFGPGTKVDIK
Turning to B1, the “IC50, neutralization of SARS-CoV-2pp, DBT-ACE2 cells” value is ~17 µg/mL.

B2: SARS-CoV-2 S315 (antibody, V domains shown)
VH: EVQLVESGGGLVQPGGSLRLSCAASGFTFSNYWMTWVRQAPGKGLEWVANIKQDGSEKYYVDSVKGRFTISRDNAKNSLYLQMNSLRAEDTAVYYCARDLWWNDQAHYYGMDVWGQGTTVTVSS
VL: SYELTQPPSVSVSPGQTARITCSGDAFPNQYAYWYQQKPGQAPVMLIYKDSERPSGIPERFFGSSSGTTVTLTIRGVQAEDEADYYCQSADSSGTVFGGGTKLTVL
For B2, the “IC50, neutralization of SARS-CoV-2pp, DBT-ACE2 cells (further assays)” value was 25.1 µg/mL.
